Measured values: US20210338733A1

Target: CD19 on CD19 positive target cell lines (UniProt P15391)
Assay: cell-based or functional assay

CD19 on CD19 positive target cell lines, sequence (P15391 20-556 limits assumed): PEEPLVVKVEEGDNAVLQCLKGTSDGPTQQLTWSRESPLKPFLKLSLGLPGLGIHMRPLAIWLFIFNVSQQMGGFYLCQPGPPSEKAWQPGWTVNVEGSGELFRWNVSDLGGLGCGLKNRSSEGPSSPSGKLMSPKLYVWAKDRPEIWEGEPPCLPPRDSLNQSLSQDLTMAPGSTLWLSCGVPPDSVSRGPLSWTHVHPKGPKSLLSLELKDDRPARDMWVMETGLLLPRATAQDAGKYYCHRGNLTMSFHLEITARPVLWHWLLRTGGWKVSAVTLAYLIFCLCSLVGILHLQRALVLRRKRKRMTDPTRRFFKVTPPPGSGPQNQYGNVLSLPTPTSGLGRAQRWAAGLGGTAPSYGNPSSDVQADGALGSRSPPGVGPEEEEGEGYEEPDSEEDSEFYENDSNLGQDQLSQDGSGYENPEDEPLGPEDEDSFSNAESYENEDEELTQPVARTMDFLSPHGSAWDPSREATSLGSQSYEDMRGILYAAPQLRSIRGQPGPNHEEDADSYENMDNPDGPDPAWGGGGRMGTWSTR

- CD40L expression by CD4+ CAR T cells (flow cytometry, 24 hours of coincubation) (fold of the upregulation by CART-TnMUC1): 2
Substance: CD19 CAR as expressed on CART-19 cells (anti-CD19 FMC63 scFv, human CD8α hinge and transmembrane, human 4-1BB and CD3ζ) (receptor)
